Where two headings read alike, the source gives them in different places. Bridge positions count the residues as written; N and C are the ends. Square brackets hold non-standard residues; d marks the D form. Phe(4-tBu) = CC(C)(C)c1ccc(C[C@H](N)C(=O)O)cc1; 2Nal = N[C@@H](Cc1ccc2ccccc2c1)C(=O)O; NMeR = CN[C@@H](CCCNC(=N)N)C(=O)O; β3hE = N[C@@H](CCC(=O)O)CC(=O)O; NMeK = CN[C@@H](CCCCN)C(=O)O; Pen = CC(C)(S)[C@H](N)C(=O)O; dNMeK = CN[C@H](CCCCN)C(=O)O

Assay [1] addresses T1, α4β1 (R&D Systems #5668-A4) (UniProt P13612 34-970; P05556 21-728, limits assumed).
T1 construct: bought; also called soluble α4β1
Briefly: competition ELISA vs VCAM-1.

Assay [2] deals with T2, mouse α4β7 integrin on TK1 cells (mouse, UniProt Q00651 41-1039; P26011 20-806).
T2 construct: whole, on cells; also called α4β7 cell (Mu); Cell Adhesion α4β7 Mouse
T2 sequence (Q00651 41-1039, chain 1 of 2): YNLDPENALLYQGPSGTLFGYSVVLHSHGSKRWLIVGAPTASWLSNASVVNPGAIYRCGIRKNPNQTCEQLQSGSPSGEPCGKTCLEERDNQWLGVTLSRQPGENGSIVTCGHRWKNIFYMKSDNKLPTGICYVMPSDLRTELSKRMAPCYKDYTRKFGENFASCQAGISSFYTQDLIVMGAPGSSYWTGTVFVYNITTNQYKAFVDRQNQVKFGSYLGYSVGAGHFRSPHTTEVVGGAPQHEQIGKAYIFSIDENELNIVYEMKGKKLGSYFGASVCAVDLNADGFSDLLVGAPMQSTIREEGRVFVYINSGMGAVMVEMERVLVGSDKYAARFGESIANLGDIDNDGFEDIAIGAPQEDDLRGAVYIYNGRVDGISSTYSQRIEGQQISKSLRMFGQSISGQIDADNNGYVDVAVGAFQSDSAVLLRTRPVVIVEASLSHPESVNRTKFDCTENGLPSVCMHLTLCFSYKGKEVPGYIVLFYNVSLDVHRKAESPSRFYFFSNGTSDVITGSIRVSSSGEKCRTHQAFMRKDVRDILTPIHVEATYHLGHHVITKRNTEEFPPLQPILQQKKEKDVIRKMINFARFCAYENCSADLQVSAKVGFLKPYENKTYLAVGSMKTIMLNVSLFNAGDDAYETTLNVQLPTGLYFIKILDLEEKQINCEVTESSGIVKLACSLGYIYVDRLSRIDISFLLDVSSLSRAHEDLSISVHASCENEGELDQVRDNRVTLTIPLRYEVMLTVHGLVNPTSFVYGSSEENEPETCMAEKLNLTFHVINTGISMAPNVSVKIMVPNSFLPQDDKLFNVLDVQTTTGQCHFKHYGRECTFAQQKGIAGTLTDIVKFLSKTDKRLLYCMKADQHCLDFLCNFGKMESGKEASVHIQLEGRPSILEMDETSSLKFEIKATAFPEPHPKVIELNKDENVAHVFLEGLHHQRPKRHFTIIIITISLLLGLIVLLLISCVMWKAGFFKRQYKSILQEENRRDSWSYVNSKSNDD
T2 sequence (P26011 20-806, chain 2 of 2): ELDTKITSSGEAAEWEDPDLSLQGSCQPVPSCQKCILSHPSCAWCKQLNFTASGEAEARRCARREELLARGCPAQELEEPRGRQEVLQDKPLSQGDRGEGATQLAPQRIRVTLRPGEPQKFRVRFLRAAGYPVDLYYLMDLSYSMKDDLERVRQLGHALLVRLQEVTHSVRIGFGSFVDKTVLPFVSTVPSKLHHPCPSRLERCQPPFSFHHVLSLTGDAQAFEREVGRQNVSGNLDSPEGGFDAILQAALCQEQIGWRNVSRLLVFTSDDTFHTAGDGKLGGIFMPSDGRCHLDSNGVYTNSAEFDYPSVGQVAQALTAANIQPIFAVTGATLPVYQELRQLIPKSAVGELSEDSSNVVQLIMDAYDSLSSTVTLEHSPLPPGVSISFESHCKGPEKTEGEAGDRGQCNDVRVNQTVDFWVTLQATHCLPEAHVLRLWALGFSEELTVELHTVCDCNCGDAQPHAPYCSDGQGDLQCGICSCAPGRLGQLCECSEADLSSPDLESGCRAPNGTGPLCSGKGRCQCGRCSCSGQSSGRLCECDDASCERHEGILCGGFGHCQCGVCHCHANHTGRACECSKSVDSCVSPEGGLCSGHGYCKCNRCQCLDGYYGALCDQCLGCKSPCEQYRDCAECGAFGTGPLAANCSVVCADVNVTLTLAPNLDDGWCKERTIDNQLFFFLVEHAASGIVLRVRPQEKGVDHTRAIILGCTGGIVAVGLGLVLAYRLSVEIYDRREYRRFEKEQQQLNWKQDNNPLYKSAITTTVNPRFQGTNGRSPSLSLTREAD
Briefly: TK1 cell adhesion to MAdCAM-1.

For assay [3], the target named is T3, human α4β7 integrin on cells (human, UniProt P13612 34-1032; P26010 20-798).
T3 construct: whole, on cells; also called α4β7 cell (Hu); RPMI8866 cells
The experiment in a line: RPMI8866 cell adhesion to MAdCAM-1.

Assay [4] addresses T4, human α4β1 integrin on cells (human, UniProt P13612 34-1032; P05556 21-798).
T4 construct: whole, on cells; also called α4β1 cell; Jurkat cells
The experiment in a line: Jurkat cell adhesion to VCAM-1.

For assay [5], the target named is T5, rh integrin α4β7 (R&D Systems #5397-A30) (human, UniProt P13612 34-970; P26010 20-723).
T5 construct: bought; coated on a nickel coated plate; also called immobilized α4β7; immobilized α4β7 integrin protein
Briefly: competition ELISA vs MAdCAM-1. A general note: In an ELISA, binding on a coated surface is turned into a signal by an enzyme label.

Assay [6] has as its target T3, human α4β7 integrin on cells. The experiment in a line: PBMC memory T cell adhesion.
Assay [7] concerns the target T2, mouse α4β7 integrin on TK1 cells. The experiment in a line: TK1 cell adhesion to MAdCAM-1. The source holds these as a separate data set.
For assay [8], the target named is T4, human α4β1 integrin on cells. The experiment in a line: Jurkat cell adhesion to VCAM-1. This is another data set of the same source.
Assay [9] addresses T5, rh integrin α4β7 (R&D Systems #5397-A30). The experiment in a line: competition ELISA vs MAdCAM-1. This is another data set of the same source.
Assay [10] deals with T1, α4β1 (R&D Systems #5668-A4). The experiment in a line: competition ELISA vs VCAM-1. The source holds these as a separate data set.
Assay [11] addresses T3, human α4β7 integrin on cells. The experiment in a line: RPMI8866 cell adhesion to MAdCAM-1. The source holds these as a separate data set.
Assay [12] shares this target. Briefly: PBMC memory T cell adhesion. The source holds these as a separate data set.
The target of assay [13] is T6, soluble α4β7 integrin (UniProt P13612 34-970; P26010 20-723, limits assumed).
T6 construct: analyte of the SPR experiment
Briefly: SPR, binder on streptavidin chip, soluble α4β7. On the technique in general: SPR reads the build-up and loss of mass on a sensor chip optically.

The target in assay [14] is human α4β1 integrin on cells (human) (UniProt P13612). The experiment in a line: Jurkat cell adhesion to VCAM-1.

B1: SEQ ID NO: 67 (peptide)
peptide: Ac-[Pen][NMeR]SDTL[Pen]WE[dK]-NH2
modifications: disulfide 1-7; not fully specified (residue 10); printed as (Ac Pen N-Me-R S D T L Pen W E k NH2)2 DIG, disulfide Pen-Pen; also: homodimer via DIG linker
notes: also called Peptide Z
For B1, the IC50 is > 100 nM in assay [1]; ≤ 10 nM in [2]; ≤ 10 nM in assay [3]; > 100000 nM in assay [4]; ≤ 10 nM in [5].

B2: SEQ ID NO: 218 (peptide)
peptide: Ac-[Pen][NMeR]SDTL[Pen][Phe(4-tBu)][β3hE][dK]-NH2
modifications: disulfide 1-7; not fully specified (residue 10); printed as (Ac Pen N-Me-R S D T L Pen F(4-tBu) b-H-E k NH2)2 DIG, disulfide Pen-Pen; also: dimer, two subunits joined by DIG linker
notes: also called peptide 218
Take B2: the IC50 was 2 nM in [6]; 0.5 nM in [7]; > 100000 nM in assay [8]; 2.8 nM in assay [9]; 490 nM in assay [10]; 0.78 nM in [11].

B3: SEQ ID NO: 68 (peptide)
peptide: Ac-[Pen][NMeR]SDTL[Pen]W[dE][dK]-NH2
modifications: disulfide 1-7; not fully specified (residue 10); printed as (Ac Pen N-Me-R S D T L Pen W e k NH2)2 DIG, disulfide Pen-Pen; also: homodimer via DIG linker
B3: the IC50 was > 500 nM in assay [1]; > 100 nM in [12]; ≤ 10 nM in assay [2]; > 25 nM in assay [3]; > 100000 nM in assay [4]; ≤ 10 nM in assay [5].

B4: SEQ ID NO: 214 (peptide)
peptide: Ac-[Pen][NMeR]SDTL[Pen]WE[dNMeK]-NH2
modifications: disulfide 1-7; not fully specified (residue 10); printed as (Ac Pen N-Me-R S D T L Pen W E N-Me-k NH2)2 DIG, disulfide Pen-Pen; also: dimer, two subunits joined by DIG linker
notes: also called peptide 214
B4: the 50% inhibitory concentration (IC50) was 24.5 nM in [6]; 1.1 nM in assay [7]; 4.1 nM in assay [9]; 436 nM in assay [10]; 2.5 nM in [11].

B5: SEQ ID NO: 215 (peptide)
peptide: Ac-[Pen][NMeR]SDTL[Pen]WE[NMeK]-NH2
modifications: disulfide 1-7; not fully specified; printed as [Ac-Pen-(N-Me-Arg)-Ser-Asp-Thr-Leu-Pen-Trp-Glu-(N-Me-Lys)-NH2]2-DIG; also: homodimer: two identical subunits joined by DIG linker at the Lys10 side chains, each subunit has its own Pen1-Pen7 disulfide
notes: also called peptide 215
Regarding B5, the IC50 was determined as 16.5 nM in assay [6]; 0.9 nM in assay [7]; 2.2 nM in assay [9]; 270 nM in [10]; 3 nM in assay [11].

B6: SEQ ID NO: 216 (peptide)
peptide: Ac-[Pen][NMeR]SDTL[Pen]W[dE][dK]-OH
modifications: disulfide 1-7; not fully specified (residue 10); printed as (Ac Pen N-Me-R S D T L Pen W e k OH)2 DIG, disulfide Pen-Pen; also: dimer, two subunits joined by DIG linker
notes: also called peptide 216
With B6, the 50% inhibitory concentration (IC50) in assay [6] is 14.5 nM; in [7] it was 1 nM; in assay [8], > 100000 nM; in assay [9], 2.8 nM; in assay [10], 247 nM; in assay [11] it was 4.2 nM.

B7: SEQ ID NO: 78 (peptide)
peptide: Ac-[Pen][NMeR]SDTL[Pen]WE[dK]-OH
modifications: disulfide 1-7; not fully specified (residue 10); printed as (Ac Pen N-Me-R S D T L Pen W E k OH)2 DIG, disulfide Pen-Pen; also: homodimer: two subunits linked by DIG via D-Lys10 side chain
Turning to B7, the concentration for half-maximal inhibition (IC50) in assay [1] is > 100 nM; in assay [2] it was ≤ 10 nM; in [3], ≤ 10 nM; in assay [4] it was > 100000 nM; in assay [5], ≤ 10 nM.

B8: SEQ ID NO: 213 (peptide)
peptide: Ac-[Pen][NMeR]SDTL[Pen]W[β3hE][dK]-NH2
modifications: disulfide 1-7; not fully specified (residue 10); printed as (Ac Pen N-Me-R S D T L Pen W b-h-E k NH2)2 DIG, disulfide Pen-Pen; also: dimer, two subunits joined by DIG linker
notes: also called peptide 213; Peptide XX
Consider B8, for which the IC50 in assay [7] is 4.2 nM; in [8], > 100000 nM; in assay [9] it was 4.7 nM; in assay [10], 539 nM; in assay [11], 12 nM.

B9: SEQ ID NO: 217 (peptide)
peptide: Ac-[Pen][NMeR]SDTL[Pen]WE[dK]-NH2
modifications: disulfide 1-7; not fully specified (residue 10); printed as (Ac Pen N-Me-R S D T L Pen W E k NH2)2 DIG, disulfide Pen-Pen; also: dimer, two subunits joined by DIG linker
notes: also called peptide 217
For the molecule B9, the IC50 in assay [7] is 1.2 nM; in assay [8], > 100000 nM; in assay [9] it was 2.3 nM; in assay [10], 315 nM; in assay [11] it was 3.2 nM.

B10: SEQ ID NO: 211 (peptide)
peptide: Ac-[Pen][NMeR]SDTL[Pen]W[dE][dK]-NH2
modifications: disulfide 1-7; also: dimer, two subunits joined by DIG linker
notes: also called peptide 211
On to B10, for which the IC50 in assay [7] was 7.3 nM; in assay [8], > 100000 nM; in [9] it was 3 nM; in assay [10] it was 302 nM; in [11] it was 22 nM.

B11: Peptide Z-biotin (peptide)
peptide: Ac-[Pen][NMeR]SDTL[Pen]WE[dK]-NH2
modifications: disulfide 1-7; not fully specified (residue 10); printed as (Ac-Pen-(N-Me-Arg)-S-D-T-L-Pen-W-E-k-NH2)2-DIG; also: homodimer: two subunits joined by DIG linker, biotin label, attachment not given here
Consider B11, for which, in [13], the Half-life for dissociation amounted to 3.53 h, the Kd was found to be 52.1 nM and the dissociation rate constant (koff) is 5.46e-05 s⁻¹.

B12: SEQ ID NO: 203 (peptide)
peptide: Ac-C[NMeR]SDTL[Pen][dK]-NH2
modifications: disulfide 1-7; also: homodimer via IDA linker on D-Lys8 side chains
notes: also called peptide 203
In the case of B12, the half-maximal inhibitory concentration (IC50) in [7] is 633 nM; in assay [8], > 100000 nM; in assay [9] it was 7.5 nM; in assay [10], 700 nM; in assay [11] it was 200 nM.

B13: SEQ ID NO: 33 (peptide)
peptide: Ac-[Pen][NMeR]SDTL[Pen][2Nal][dE][dK]-NH2
modifications: disulfide 1-7; also: dimer (…)2 DIG, attachment not given here
As for B13, in assay [14], the IC50 is > 100000 nM.

B14: SEQ ID NO: 209 (peptide)
peptide: XRSDTLXWK
modifications: (Ac Pen N-Me-R S D T L Pen W k NH2)2 DIG; disulfide Pen-Pen
notes: also called peptide 209
As for B14, the 50% inhibitory concentration (IC50) was 260 nM in [6]; 51 nM in [7]; > 100000 nM in [8]; 2.3 nM in assay [9]; 368 nM in [10]; 24 nM in assay [11].

B15: SEQ ID NO: 204 (peptide)
peptide: Ac-C[NMeR]SDTL[Pen]W[dK]-NH2
modifications: disulfide 1-7; also: homodimer via DIG linker on D-Lys9 side chains
notes: also called peptide 204
B15: the IC50 in assay [6] was 1280 nM; in [8] it was > 100000 nM; in assay [9], 2 nM; in assay [10], 463 nM; in assay [11], 22 nM.

For orientation: IC50 means the concentration at which inhibition is half-maximal. Higher therefore signals weaker potency in that assay. In general, Kd refers to the free concentration of one partner at which half of the binding sites on the other are occupied at equilibrium, for simple one-to-one binding. As a reminder, the koff is the rate constant with which the complex falls apart. A high value points to fast dissociation.

For the origin of these results see patent publication US20220162261A1 (published 2022).
